Assay: yeast display, Sf9 membrane polyspecificity reagent, FACS + sequencing; frameworks hold sequencing errors
How it was run: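 Galactose induction of a Saccharomyces cerevisiae BJ5465 synthetic nanobody display library ran 36–48 hours. The cells were then stained for 1 hour at 4 °C with 10% biotinylated, detergent-solubilized Sf9 membrane reagent, pulled down on streptavidin microbeads and FACS-sorted into low and high (top ~1%) gates on expression and reagent-binding fluorescence. Labels for polyreactivity follow the gate of origin.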

Row | Sequence | polyreactivity (PSR sort gate)
1 | QVQLVESGGGLVQAGGSLRLSCAASGRTFRYYAMGWYRQAPGKERELVAAITVTVTSTFYADSVKGRFTISRDNAKNTVYLQMNSLKPEDTAVYYCAKVDRQYPGQYYYWGQGTQVTVSS | low polyreactivity
2 | QVQLVESGGGLVQAGGSLRLSCAASGSTFVLYAMGWYRQAPGKERELVAVISWSGGSTYYADSVKGRFTISRDNAKNTVYLQMNSLKPEDTAVYYCAKRYRVSYYPYADPYGYWGQGTQVTVSS | low polyreactivity
3 | QVQLVESGGGLVQAGGSLRLSCAASGFIFARYAMGWYRQAPGKERELVARITTGDSTYYADSVKGRFTISRDNAKNTVYLQMNSLKPEDTAVYYCAADDNVSVVGLYYWGQGTQVTVSS | low polyreactivity
4 | QVQLLESGGGLVQAGGSLRLSCMASGSILGDRMSWYRQAPGKEHELVATIYDGGITYYADSMKGRFTISRDNAKNTVYLQMNSLRPEDTAVYYCGASFEGYGYHVYCGQGTQVTVSS | low polyreactivity
5 | QVQHVESGGGLVQAGGSLRLSGAASGSTFTYNTMGWYRQAPGKERELVAAITTYGGNTYYADSVKGRFTISRDNAKNTVYLQMNSLKPEDSAVYYCAARVIFGDFDYWGQGTQVTVSS | low polyreactivity
6 | QVQLVESGGGLVQAGGSLRLSLAASGSIFRAYVMGWYRPAPGKERELVAAITRSGARTYYADSLKGRFTLSRDNAKNTVYLQMNSLKPEDTAVYYCAAETSGSQSKLYYYWGQGTQVTVSS | high polyreactivity
7 | QVQLVESGGGLVQAGGSLRLSCAASGSTFFLYAMGWYRQAPGKERELVAAISTTGGSTNYADSVKGRFTISRDNAKNTVYLQMNSLKPEDTAVYYCAAGPSAQSIYDHWGQGTQVTVSS | low polyreactivity
8 | QVQLVESGGGLVQAGGSLRLSCAASGRTFGRYAMGWYRQAPGKERELVAAITRGGGSTYYADSVKGRFTISRDNAKNTVYLQMNSLKPEDTAVYYCAARNFRSPYGYDYWGQGTQVTVSS | high polyreactivity
9 | QVQLVESGGGLVQAGGSLRLICAASGSTFSQYTMGWYRQAPGKERELVAAITGSGGGTYYADSVKGRFTISRDNAKNTVYLHMESLKPVDTAVYYCAALTLNEKYTSRRGVYYWGQGSQVTVSS | high polyreactivity
10 | QVQLVESGGGLDQAGGSLRLSCAASGRTYYRYAMGWYRQAPGKESELVAAITWSGGSSYYADSVKGRFTTSRDNAKNTVYLQRNTLKPEDTAVYYCARRLYPYRPTAYDSWGQGTQVTVAS | low polyreactivity
11 | QVQLVESGGGLDQAGGSLRLSCAASGITIIGYAMGWYRQAHGKERELVASITSGANTNYADSVKGRFTISRANAKNTVYFQMNSLKPEATAVYYCAAPEHGTYANILGEPLDYWGQGSQVTVSS | low polyreactivity
12 | QVQLVESGGGLVQAGGSLRLSCAASGFIFGDNAMGWYRQAPGKERELVAAINSGSRTSYADSVKGRFTISRDNAKNTVYLQMNSLKPEDTAVYYCAAESVSSGDNASRYDYWGQGTQVTVSS | low polyreactivity
13 | QVQLVESGGGLVQAGGSLRLSCAASGSTFVWNAMGWSRQAPGKERQLVAAIDSGGSTNYADSVKGRFTISRDNAKNTVYLQMNSLKPEDTAVYYCATDQGYRYLKIYVYGDAFDYWGQGTQVTVSS | low polyreactivity
14 | QVQLVESGGGLVQAGGSLRLSCAASGSIFYRNVMGWYRQAPGKERELVAAISWSGGSTYYADSVKGRFTISRDNAKNTVYLQMNSLKPEDTAVYYCAADIPKTGYPYAFEYWGQGTQVTVSS | low polyreactivity
15 | QVQLVESGGGLVQAGGSLRLSCAASGSIFKYYAMGWYRQAPGKERELVAAISSGGRTNYADSVKGRFTISRDNAKNTVYLQMNSLKPEDTAVYYCAAGWYRKHRQPSGVGGDYWGQGTQVTVSS | high polyreactivity
16 | QVQLVESGGGLVQAGGSLRLSCAASGRTFRTNAIGWYRQATGKERELVAAIRASTGSTYYADSVKGRFTISRDNAKNSVYLQMNSLKPEDTAFYYCAARLRRGLTATWYYYWGQGTQVTVSS | high polyreactivity
17 | QVQLVESGGGLVQAGGSLSLSCAASGFIFGGNAMGWYRQAPGKERELVAAISSGGRTYYADSVKGRFTISRDNAKNTVYLQMNSLKPEDTAVYYLNDYSYHRGRDYWGQGTQVTVSS | low polyreactivity
18 | QVQLVESGGGLVQAGGSLRLSCAASGSIFTYNVMGWYRQAPGKERELVAAIRTRGDRTYYADSVKGRFTISRDNAKNTVYLQMNSLKPEDTAVYYCAAAGSYYSHEYWGQGTQVTVSS | high polyreactivity
19 | QVQLVESGGGLVQAGGSLRLSCAASGFTFPWYAMGWYRQAPGKERELVAAINTGGSTYYADSVKGRFTISRDNAKNTVYLQMNSLKPEDTAVYYCATLGRYRYLNTYYWGSHDYWGQGTQVTVSS | high polyreactivity
20 | QVQLVESGGGLVQAGGSLRLICAASGFTFASNAMGWYRQATGKERELVAAITTSGGSTYYADSVKGRFTISRDNAKNTVYLQMNSLKPEDTSVYYCADRATSRRPYSYGSWGQGTQVTVSS | high polyreactivity
21 | QVQLVESGGGLVQAGGSLRLICAASGITFVYYAMGWYRQAPGKERELVAAISTSGDSTYYADSVKGRFTISRDNAKNTVYLPMNSLKPEDTAVYYCAADADYYQYGWRVYYWGQGTQVTVSS | low polyreactivity
22 | QVQLVESGGGLVQEGGSLRLSCAASGSTFAANTMGWYRQAPGKERELVAAITVRGGSTYYADSVKGRFSMSRDNAKNTVYLQTNSLKPEDTAVYDCAAERPPYGYLVVGYVSTQYYYWGQGTQVTVSS | low polyreactivity

Row | Sequence | polyreactivity (PSR sort gate)
23 | QVQLVESGGCLVQAGGSLRLSCAASGRTFYPYAMGWYRQAPGQDRELVAAIRSSGGTTYYADSVKGRFTISRDNAKNTVYLQMNSLKREDTAVYYCAAFVDRQGGYYWGQGTQVTVSS | high polyreactivity
24 | QVQLVESGGGLVQAGGSLRLSCAASGSIFSYYTIGWYRKAPGKERELVAAISFSGTSTYYADSVKGRFTISRDNDKNTVYLQMNSLKPEDTAVYFCAKRALYYPTYPKYDTYNRYYWGQGTQGTVSS | high polyreactivity
25 | QVQLVESGGGLVQAGGSLRLSCAASGSIFSFYAMGWYRQAPGKERELVAAISRSGGSTYYADSVKGRFTISRDNAKNTVYLQMNSLKPEDTAVYYCAADYYYGTYDYWGQGTQVTVSS | low polyreactivity
26 | QVQLVESGGGLVQAGGSLRLICAASGSIFYHNGMGWYRQAPGKERELVAGISSTGSTYYADSVKGRVTLSRDNAKNTVYLQMNSLKPEDTAVYYCATDFGDIGDDAHSLGYDYWGQGTQVTVSS | low polyreactivity
27 | QDQLVESGGGLVQAGGSLRLSCAASGSTLYMYAMGWYRQAPGKERELVAAISWSDDTTYYADSVKGRFTISRDNAKNTVYLQMNSLKPEDTAVYYCNAETYYGNSFGPFSYDYWGQGTQVTVSS | low polyreactivity
28 | QVQLVESGGGLVQAGGSLRLSCAASGITFPLYVLGWYRQAPGKDRELVAAISASGGSTYADSVKGRFTISRDNAKNTVYFQMNSLKTEVTAVYYCNADVYVGYEYDYWGQGTQVTVSS | low polyreactivity
29 | QVQLVESGGGLVQAGGSLRLSCAASGRIFGYYAMGWYRQAPGKERELVAAISYRGSSTYYADSVKGRFTISRDNAKNTVYLQMNSLKPEDTAVYYCAAKGHGRTYDYWGQGTQVTVSS | high polyreactivity
30 | QVQLVESGGGLVQAGGSLRLSCAASGSTFEANAMGWYRQAPGKERELVAVITWTGGSTYYADSVKGRFTISRDNAKNTVYLQMNSLKPEDTAVYYCAADGVVPCRFFWPAHEYDYWGQGTQVTVSS | low polyreactivity
31 | QVQLVESGGGLVQAGGSLRLSCAASGSIITGYAMGWYRQAPVKERELVAGINSGTSTNYADSVKGRFTISRDNAKNTVSLQMNSLKPEDTAVYYCAKTAERRHYGVYRFDYWGQGTQVTVSS | low polyreactivity
32 | QVQLVESGGGLVQAGGSLRLSCAASGSIFAANAMGWYRQATGKESELVAAISWSGGSTYADSVKGRFTISRDNAKNTVYLQMNSLKPEDTAVYYCNAFVYVGTGRGYDTLDYWGQGTQVTVSS | low polyreactivity
33 | QVQLQESGGGLVQAGGSLRLSCAASGHISIKLQRGWYRAAPGKERELVATINLGAITYYADSVKGLITNSRDNAKNTVYLQLNSLKPEDTAVYYCAARWRSGFTSGDYWGQGTQVTVSS | low polyreactivity
34 | QVQLVESGGGLVQAGGSLRLSCAASGGTFGVYYAMGRYRQAPGKERELVADISWSAGSTYYADSVKGRFTISRDNAKNTVYLQMNSLKPEDTAVYYCAARYAVYWPWYVREYDYWGQGTQVTVSS | low polyreactivity
35 | QVHLVESGGGLVQAGGSLRLSCAASGRIFGDYAMGWYRQATGKERELVAAINSSGTSTNYADSVKGRFTFSRDNAKNTVYLQMNSLKPEDTAVYYCNAEGTYRPEYDSWGQGTQVTVSS | low polyreactivity
36 | QVQLVESGGGIVQAGGSIRLRCAASGIIFVVNDMGWYRQAPGKERELVADISDSGGSTNYADSVKGRFTISRDNAKNTVYLQMNRLKPEDTAVYYCAADSADPTEYDYWGQGSQVTVSS | low polyreactivity
37 | QVQLVESGGGLVQAGGSLRLSCAASGSIFWQNTMGWYRQAPGKERELVAAISWSGGRTYYADSVKGRFTISRDNAKNTVSLPMNSLKPEDTAVYYCNKLLSQRRYHSEMDYWGQGTQVTVSS | high polyreactivity
38 | QVQLVESGGGLVQAGGSLRLSCAASGSIFYPYVMGRYRQAPGKEREFVAAITTSGGTTYYADSVKGRFTISLDNAKNTVYLKMNSLKPEDTAVYDCAARGTVPGWAIYDYWGQGTEVTVSS | low polyreactivity
39 | QVQLVESGGGLVQAGGSLRLSCAASGSIFYLNAMGWYRQAPGKERELVAAINRGGSTSYADSVKGRFTISRDNAKNTVYLQMNSLKPEDTAVYYCAADHGGVQYSVRYDYWGQGTQVTVSS | low polyreactivity
40 | QVQLVESGGGLVQAGGSLRLSCAASGRIFGNTAMGWYRQAPGKERELVAAIRSRGTRTYYADSVKGRFTISRDNAKNTVYLQMNSLKPEDTAVYYCATTSLTGRYDRYDYWGQGTQVTVSS | high polyreactivity
41 | QVQLVDSGGGLVHAGGSLSLSCAASGRIFSHYALGWYRQAPGKERELVAAISSRGGRTYYADSVKGRFTISRDNAKNTVYLQMNSLKPEDPAVYYCAAVIRSVYSYYEYDYWGQCTQVTVSS | high polyreactivity
42 | QVQLVESGGGLVQAGGSLRLSCAASGLTFWHYAMGWYRQAHGKERELVAAISSGGRTYYADSVKGRFTISRDNAKNTVYLKMNSLKPEDSAVYYCAARGPQYYVYGYDYWGQGTQVTVSS | high polyreactivity
43 | QVQLVESGGGLVQAGGSLRLSCAASGRIFSNNDMGWYRQAAGKERELVAAISKNGGRTYYADSVKGRFTISRDNAKNTVYLQMNSLKPEDTAVYYCAAPVKPVTGYYPYDYWGQGTQVTVSS | high polyreactivity

From the nanobody polyreactivity screen of Harvey et al. (2022)
